Data: patent US10435668

Legend:
[1] = target: 2C T cell receptor on CD8+ T cells of 2C TCR transgenic mice (mouse); experiment: flow cytometry off-rate assay on naive 2C T cells, APC-labeled MHC-Ig, 1B2 added to prevent re-binding, exponential fit
[2] = target: 2C T cell receptor on CD8+ T cells of 2C TCR transgenic mice (mouse); experiment: flow cytometry off-rate assay on naive 2C T cells, derived from off-rate
[3] = target: 2C T cell receptor on CD8+ T cells of 2C TCR transgenic mice (mouse); experiment: flow cytometry off-rate assay on activated 2C T cells, derived from off-rate
[4] = target: 2C T cell receptor on CD8+ T cells of 2C TCR transgenic mice (mouse); experiment: estimated from dissociation data, activated 2C T cells
[5] = target: 2C T cell receptor on CD8+ T cells of 2C TCR transgenic mice (mouse); experiment: flow cytometry off-rate assay on activated 2C T cells, APC-labeled MHC-Ig, 1B2 added to prevent re-binding, exponential fit
[6] = target: 2C T cell receptor on CD8+ T cells of 2C TCR transgenic mice (mouse); experiment: estimated from dissociation data, naive 2C T cells; one contact is assumed for the dimer on naive cells
[7] = target: 2C T cell receptor on CD8+ T cells of 2C TCR transgenic mice (mouse); experiment: off-rate assay, flow cytometry, activated against naive T cells
[8] = target: 2C T cell receptor on CD8+ T cells of 2C TCR transgenic mice (mouse); experiment: equilibrium particle binding assay, flow cytometry, activated against naive T cells
[9] = target: 2C T cell receptor on CD8+ T cells of 2C TCR transgenic mice (mouse); experiment: flow cytometry off-rate assay on activated 2C T cells, APC-labeled nanoparticles bearing K^b-SIY alone, 1B2 added to prevent re-binding, exponential fit
[10] = target: 2C T cell receptor on CD8+ T cells of 2C TCR transgenic mice (mouse); experiment: estimated from dissociation data, naive 2C T cells
[11] = target: 2C T cell receptor on CD8+ T cells of 2C TCR transgenic mice (mouse); experiment: flow cytometry, Alexa 647 labeled particles bound to naive CD44lo 2C T cells
[12] = target: 2C T cell receptor on CD8+ T cells of 2C TCR transgenic mice (mouse); experiment: estimated from dissociation data, naive cells (6.8 contacts)
[13] = target: 2C T cell receptor on CD8+ T cells of 2C TCR transgenic mice (mouse); experiment: estimated from dissociation data, activated cells (12.6 contacts)
[14] = target: pmel T cell receptor on CD8+ T cells of pMEL TCR transgenic mice (mouse) (UniProt Q60696); experiment: flow cytometry, Alexa 647 labeled particles on control non-cognate CD44lo pmel T cells
[15] = target: 2C T cell receptor on CD8+ T cells of 2C TCR transgenic mice (mouse); experiment: flow cytometry, Alexa 647 labeled particles bound to activated 2C T cells (seven days after peptide activation)
[16] = target: 2C T cell receptor on CD8+ T cells of 2C TCR transgenic mice (mouse); experiment: flow cytometry off-rate assay on naive 2C T cells, APC-labeled nanoparticles bearing K^b-SIY alone, 1B2 added to prevent re-binding, exponential fit

Chain of UniProt Q60696 (Q60696 whole entry): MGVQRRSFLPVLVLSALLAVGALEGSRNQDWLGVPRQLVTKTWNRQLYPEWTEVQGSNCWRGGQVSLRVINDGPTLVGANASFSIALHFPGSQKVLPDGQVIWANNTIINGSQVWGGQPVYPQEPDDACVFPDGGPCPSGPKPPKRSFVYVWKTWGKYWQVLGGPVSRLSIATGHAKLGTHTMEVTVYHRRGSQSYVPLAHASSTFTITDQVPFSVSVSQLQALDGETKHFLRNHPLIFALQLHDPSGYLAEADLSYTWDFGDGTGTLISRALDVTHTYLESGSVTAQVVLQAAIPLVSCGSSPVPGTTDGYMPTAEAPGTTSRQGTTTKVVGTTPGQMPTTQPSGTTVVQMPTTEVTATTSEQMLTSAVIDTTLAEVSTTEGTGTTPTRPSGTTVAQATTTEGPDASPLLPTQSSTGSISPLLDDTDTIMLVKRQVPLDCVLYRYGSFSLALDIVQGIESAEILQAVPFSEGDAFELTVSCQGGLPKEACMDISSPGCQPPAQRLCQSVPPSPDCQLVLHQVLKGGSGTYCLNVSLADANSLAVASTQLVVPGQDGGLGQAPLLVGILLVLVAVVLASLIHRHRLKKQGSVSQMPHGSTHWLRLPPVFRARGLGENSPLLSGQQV

| koff [1] | Half-Life [2] | Half-Life [3] | TCR-MHC Contacts [4] | koff [5] | TCR-MHC Contacts [6] | fold slower disassociation from activated than from naive cells [7] | fold fewer nanoparticles bound at equilibrium by activated than by naive cells [8] | koff [9] | TCR-MHC Contacts [10] | MFI [11] | percent of MHC-Ig dimers on the particle surface in TCR-MHC contacts [12] | percent of MHC-Ig dimers on the particle surface in TCR-MHC contacts [13] | MFI [14] | MFI [15] | koff [16] | Substance |
| --- | --- | --- | --- | --- | --- | --- | --- | --- | --- | --- | --- | --- | --- | --- | --- | --- |
| 0.0089 s⁻¹ | 1.3 min | 1.87 min | 1.7 contacts | 0.0052 s⁻¹ | 1 contacts | – | – | – | – | – | – | – | – | – | – | K^b-SIY MHC-Ig dimer (soluble K^b-Ig loaded with SIY peptide) (from UniProt P01901 22-305) (peptide-MHC) |
| – | 8.85 min | 16.4 min | 12.6 contacts | – | – | 2 fold | 2 fold | 0.0009 s⁻¹ | 6.8 contacts | 179 MFI | 11% | 22% | 21 MFI | 89 MFI | 0.002 s⁻¹ | Nanoparticles bearing K^b-SIY MHC-Ig alone (iron-dextran nanoparticle, no anti-CD28) (from UniProt P01901 22-305) (peptide-MHC) |
